This data set has as its target T1, ZC3H12B PIN-ZnF fragment (human, UniProt Q5HYM0 179-397).
T1 sequence: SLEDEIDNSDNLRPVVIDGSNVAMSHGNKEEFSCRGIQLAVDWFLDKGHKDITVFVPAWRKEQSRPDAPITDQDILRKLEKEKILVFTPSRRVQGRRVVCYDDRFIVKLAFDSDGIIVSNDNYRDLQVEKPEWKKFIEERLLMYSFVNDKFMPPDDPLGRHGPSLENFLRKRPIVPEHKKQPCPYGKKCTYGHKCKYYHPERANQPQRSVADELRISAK
The data set is described as follows: X-ray crystallography.

AAUGCGACAGUCGGUAGCAUC (ssRNA, phosphorothioate bond between nt 1 and 2 (5' end)) [21-nt HTR-SELEX-enriched RNA]: the binding result is recorded as “binds”.

Source of the values: doi:10.1101/317909.
